Measurements: patent US20250179196A1 (Janssen / Centocor, published 2025)
Numbering of substitutions follows the chain as printed.

T1: human IL-23R expressed on the cell surface of stably transfected iLite and HEK cell lines (human, UniProt Q5VWK5 24-629)
T1 construct: whole, on cells; Same receptor on two transfected cell lines; the cell line is named under assay; also called human IL-23R iLite cells; human IL-23R HEK cells
T1 sequence (looked up): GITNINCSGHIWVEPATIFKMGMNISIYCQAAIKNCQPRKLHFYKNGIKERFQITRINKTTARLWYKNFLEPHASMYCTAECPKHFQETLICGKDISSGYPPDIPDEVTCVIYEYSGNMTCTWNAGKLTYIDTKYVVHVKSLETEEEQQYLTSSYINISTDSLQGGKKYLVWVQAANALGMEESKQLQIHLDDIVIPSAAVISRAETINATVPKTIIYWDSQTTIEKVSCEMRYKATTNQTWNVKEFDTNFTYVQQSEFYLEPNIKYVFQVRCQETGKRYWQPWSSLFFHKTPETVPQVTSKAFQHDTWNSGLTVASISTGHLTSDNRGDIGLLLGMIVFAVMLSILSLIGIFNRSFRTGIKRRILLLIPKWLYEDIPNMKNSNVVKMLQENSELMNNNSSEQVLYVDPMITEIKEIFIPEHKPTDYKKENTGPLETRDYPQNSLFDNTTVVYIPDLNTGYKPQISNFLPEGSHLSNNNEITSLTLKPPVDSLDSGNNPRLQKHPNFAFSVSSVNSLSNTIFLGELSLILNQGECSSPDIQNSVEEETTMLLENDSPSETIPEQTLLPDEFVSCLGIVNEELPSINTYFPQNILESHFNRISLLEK

B1: I23RB92 (antibody, mouse IgG2a, kappa, V domains shown)
VH: EVQLQQSGPEVVKPGASVKISCKASGYTFTDHTMDWVKQSHGKNLEWIGYIYPKSGGTGYNQKFKNKATLTVDKSSSTAYMEFHSLTSDDSAVYYCARWGLRRDGFVYWGQGTLVTVSA
VL: DIKMTQSPASLAVSLGQRATISCRASQSVSTSKYDYIHWYQQKSGQPPRLLIKYASNLESGVPARFSGSGSGTDFTLNIHPVEEEDTATYYCQHTWEIPYTFGSGTKLELKR
notes: immunization; mouse IgG2a/kappa
B2: I23RB65 (antibody, mouse IgG2a, kappa, V domains shown)
VH: EVQLQQSGPELVKPGASVKISCKASGYTFTDHTMDWVKQSHGKSLEWIGYIYPKSGNAAYSQKFKSEATLTVDKSSSTAYMEFHSLTSEDSAVYYCARWGLRRDGFTYWGQGTSVTVSS
VL: B1 VL with D1Q, K3V, M4L, K33S, D35N, S44P, R49K, E85D, L110I
notes: as for B1
B3: I23RB74 (antibody, mouse IgG2a, kappa, V domains shown)
VH: DVQLQESGPGLVKPSQSLSLTCSVTGYSITSGYYWNWIRQFPGNKLEWMGYISYDGSFNYNPSLKNRLSITRDTSMNQFFLKLNSVTSEDTATYYCARAEIYYDYDGDFDYWGQGTTLTVSS
VL: DIVLTQSPASLAVSLGQRATISCRASKSVSTSGSNFLHWYQQKPGQPPKLLIYFASNLESGVPARFSGSGSGTDFTLNIHPVEEEDAATYYCQHSRELPHTFGAGTKLELKR
notes: as for B1
B4: I23RB77 (antibody, mouse IgG2a, kappa, V domains shown)
VH: DVQLQESGPGLVAPSQSLSITCTVSGFSLSRYSVHWVRQPPGKGLEWLGMIWGSGSTDYNSALKSRLSINKDNSKSQVFLKMNSLQTDDTAMYYCARVYYGGSPYAMDYWGQGTTVTVSS
VL: DIVMTQSPASLALSLGQRATISCRASESVDSYGNSFMHWYQQKPGQPPKLLIYLASNLESGVPARFSGSGSRTDFTLTIDPVEADDAAIYYCQQNNEEPNTFGAGTKLEMKR
notes: as for B1
B5: I23RB47 (antibody, mouse IgG2a, kappa, V domains shown)
VH: QVQLKESGPGLVAPSQSLSITCTVSGFSLTNYDIHWVRQSPGKGLEWLGVIWSDGRTDYKGAFISRLSISKDNSKSQVFFKMNSLQADDTAIYYCARNNYYRYGRNTMDYWGQGTSVTVSS
VL: DIVLTQSPASQSASLGESVTITCLASQTIGSWLAWYQQKPGKSPQLLIYAATRLADGVPSRFSGSGSGTKFSFKISSLQAEDFVFYYCHQLYSIPLTFGGGTKLEMKR
notes: as for B1
B6: I23RB83 (antibody, mouse IgG2a, kappa, V domains shown)
VH: DVQLQESGPGLVAPSQSLSITCTVSGFSLTNYDVHWVRQSPGKGLEWLGVIWSDGSTDYNAAFISRLSFSKDNSKRQVFFKMNSLQPDDTAIYYCARNNYYRYGRNPMDYWGQGTTVTVSS
VL: B5 VL with V3Q, L4M, R53S, F85S, H89Q, I94S, M106I
notes: as for B1
B7: I23RB98 (antibody, mouse IgG2a, kappa, V domains shown)
VH: EFQLQQSGPELVKPGASVKMSCKASGYTFTNYYMHWVKQSHGKTIEWIGYIYPNSGDTSYNQKFKGKATLTVDKSSSTAYMELRSLTSEDSAVYTCARFGGFYDAMDYWGQGTTVTVSS
VL: DIVLTQSPAIMSASLGERVTMTCTASSSVSSSYLHWYQQKPGSSPKLWIYSTSNLASGVPARFSGSGSGTSYSLTISSMEAEDAATYYCHQYHRSPFTFGSGTKLEMKR
notes: as for B1
B8: I23RB57 (antibody, mouse IgG2a, kappa, V domains shown)
VH: B7 VH with T95N, T114S
VL: B7 VL with L4M, M107I
notes: as for B1
B9: I23RB93 (antibody, mouse IgG2a, kappa, V domains shown)
VH: QVQLKESGPGLVQPSQSLSITCTVSGFSLTSYGVHWVRQSPGKGLEWLGVIWSGVSTDYNAAFISRLSISKDNSKSQVFFKMNSLQADDTAIYYCARSRGSYYFDYWGQGTTLTVSS
VL: DIKMTQSPATLSVTPGDSVSLFCRASQSISNNLHWYQQKSHESPRLLIKYASQSISGIPSRFSGSGSGTDFTLSINSVETEDFGMYFCQQSNSWPLTFGGGTKLEIKR
notes: as for B1
B10: I23RB32 (antibody, mouse IgG2a, kappa, V domains shown)
VH: EFQLQQSGPELVKPGASVKLSCKASGYTFTDYALHWVKQSPGQGLEWIGWIYPGGGNTYYNDKFKGKATMTADKSSSTAYMQLSSLTSEDSAVYFCARGRLRRDYPMDYWGQGTSVTVSS
VL: DIVMTQSPSSLTVTAGEKVTMSCKSSQSLLNSGNQKNYLTWYQQKPGQPPKLLIYWASTRESGVPDRFTGSGSGTDFTLTISSVQAEDLAVYYCQNDYTYPLTFGSGTKLEIKR
notes: as for B1
B11: I23RB76 (antibody, mouse IgG2a, kappa, V domains shown)
VH: EVQLQQSGPELVKPGASVKMSCKASGYTFTDYYMNWMKQSHGKSLEWIGYISPKNGRTGYNQKFKGKATLTVDKSSTTAYMELRSLTSEDSAVYYCAKSNGYYALDYWGQGTTVTVSS
VL: DIVLTQSPATLCVTPGETVSLSCRASQNIYKNLHWFQQKSHRSPRLLIKYASDSISGIPSRFTGSGSGTDYTLSINSVKPEDEGIYYCLQGYSTPWTFGGGTKLEIKR
notes: as for B1
B12: I23RB82 (antibody, mouse IgG2a, kappa, V domains shown)
VH: QVQLKESGPGLVAPSQSLSITCTVSGFSLTNYALHWFRQSPGKGLEWLGVIWSDGSTDYNSPFISRLSISKDNSKSQVFFKMNSLQADDTAIYYCARSRSNYGRWYFDVWGAGTTLTVSS
VL: QIVLSQSHKFMSTSVGDRVSITCKASQDVSTAVAWYQQKPGQSPKLLIYSAFYRYTGVPDRFTGSGSGTDFTFTISSVQAEDLAVYYCQQHYSTPYTFGGGTKLEIKR
notes: as for B1
B13: I23RB81 (antibody, mouse IgG2a, kappa, V domains shown)
VH: DVQLQESGPGLVAPSQSLSITCTVSGFSLTSYAINWVRQPPGKGLEWLGVIWTGGGTNYNSALKSRLSISKDNSKSQLFLKMNSLQTDDTARYYCARNRDYSNYRWYFDVWGAGTSVTVSS
VL: B12 VL with Q1D, L4M, S5T, T22I, F52S, Y96L, G100A, K103R
notes: as for B1
B14: I23RB33 (antibody, mouse IgG2a, kappa, V domains shown)
VH: EVQLQQSGAELVKPGASVKLSCTASGFNIRDIYIHWVKQRPEQGLEWIGRIDPANGHSIYAAKFQGKATITADTSLNIAYMQLSSLTSGDTAVYYCARGSDNDYGRVLAYWGLGTSVTVSS
VL: DIVLTQSPAIMSASPGEKVTMTCRASSSVRSSYLHWYQQKSGASPKLWIYSTSNLASGVPARFSGSGSGTSYSLTITSVEAEDAATYYCQQYTGNPIFTFGSGTKLELKR
notes: as for B1
B15: I23RB86 (antibody, mouse IgG2a, kappa, V domains shown)
VH: EVQLQQSGAELVKPGASVKLSCKASGYTFTSYWLHWVKQRPGQGLEWIGEIDPSDSYTYYNQKFKGKATLTVDKSSSTAYMQLSSLTSEDSAVYYCARSPYDYDWGAYWGQGTSVTVSS
VL: DIVMTQSPSSMSVSLGDTVSITCHASQGISSNIGWLQQKPGKSFKGLIYHGTNLEDEVPSRFSGSGSGADYSLTIGSLESEDFADYYCVQYAQFPWTFGAGTKLEMKR
notes: as for B1

The binders below were run against T1, human IL-23R expressed on the cell … (assay: flow cytometry on human IL-23R HEK cells, Expt D (8-point, 96well)).
Procedure: HEK-IL-23R cell concentration response mAb binding (8-point, 96-well assay). […] HEK-IL-23R and HEK-parental cells (12.5 μL of each, 120000 cells total) were plated in 2× replicate on 96-well V-bottom plates (Corning, Cat #3357) into 37° C. warmed Assay medium containing serially diluted IL-23R mAbs to a final volume of 150 μL. IL-23R mAbs were allowed to bind to cells for 30 minutes, at 37° C. […] Cells were next washed twice in ice-cold stain buffer, then resuspended in a final volume of 30 μL with Sytox Green viability dye (ThermoFisher, Cat #S7020). Plates were kept on ice until run for analysis on the iQue. All washes were performed by centrifugation (800 rcf, 3 minutes) followed by flick decantation to remove supernatants. Cell-binding to HEK-IL-23R cells was measured with FlowJo, by gating for single, viable cells and determining the geometric mean fluorescence intensity (MFI) for the 647 detection antibody. Geometric mean fluorescence intensities were plotted over log mAb concentrations fitted with a dose response curve with variable slope using GraphPad Prism.

Row | EC50 [nM] | Binder
1 | 0.2 | B1
2 | 0.3 | B2
3 | 0.3 | B3
4 | 0.2 | B4
5 | 0.2 | B5
6 | 0.7 | B6
7 | 1.9 | B7
8 | 5 | B8
9 | 0.5 | B9
10 | 0.4 | B10
11 | 0.4 | B11
12 | 0.6 | B12
13 | 0.9 | B13
14 | 0.2 | B14
15 | 1.2 | B15

These binders were tested against T1, human IL-23R expressed on the cell … (assay: flow cytometry on human IL-23R HEK cells, Expt E (11-point, 384well)).
Procedure: HEK-IL-23R cell concentration response mAb binding (11-point, 384-well assay). […] IL-23R mAbs were allowed to bind to cells for 30 minutes, at 37° C. […] Cells were next washed twice in ice-cold stain buffer, then resuspended in a final volume of 10 μL with Sytox Green viability dye (ThermoFisher, Cat #S7020). Plates were kept on ice until run for analysis on the iQue. All washes were performed by centrifugation (800 rcf, 3 minutes) followed by automated aspiration to remove supernatants with plate washers. Cell-binding to HEK-IL-23R cells was measured with FlowJo, by gating for single, viable cells and determining the geometric mean fluorescence intensity (MFI) for the 647 detection antibody. Geometric mean fluorescence intensities were plotted over log mAb concentrations fitted with a dose response curve with variable slope using GraphPad Prism.

Row | EC50 [nM] | MFI (6.4 nM) [MFI] | Binder
16 | 4 | 376000 | B1
17 | 4 | 275000 | B2
18 | 13 | 185000 | B3
19 | 4.8 | 184000 | B4
20 | 4.1 | 364000 | B5
21 | 31.5 | 121000 | B6
22 | 28.7 | 59400 | B7
23 | > 50 | 99600 | B8
24 | 8.9 | 193000 | B9
25 | 5.1 | 292000 | B10
26 | 11.9 | 322000 | B11
27 | 9.8 | 181000 | B12
28 | 7.2 | 181000 | B13
29 | 5.6 | 306000 | B14
30 | 22.8 | 164000 | B15
